The source of these data is US20080026982A1.

Holding throughout (assay): cell-based or functional assay
The target of assay [1] is APOBEC3G mutant P129D, C-terminal myc-tagged, expressed from pAPO3G-P129D (human) (UniProt Q9HC16).
The target of assay [2] is APOBEC3G mutant D128K, C-terminal myc-tagged (human).
The target of assay [3] is APOBEC3G mutant P129F, C-terminal myc-tagged (human) (UniProt Q9HC16).
Assay [4] deals with APOBEC3G mutant P129A, C-terminal myc-tagged (human) (UniProt Q9HC16).

On to HIV-2 Vif (HIV-2Rod), for which the GFP-positive cells (relative to wild type APOBEC3G with pcHelp set to 100%) in assay [1] was less than 10%. Also, the Inhibition HIV-2 (%) (viral inhibition, HDV-EGFP single-cycle infectivity in the presence of Vif) in assay [1] came out at 95%; in assay [2], 42%; in assay [3], 81%; in assay [4] it was 77%.
In the case of “HIV-1 Vif (virion infectivity factor), expressed from pC-Help”, the GFP-positive cells (relative to wild type APOBEC3G with pcHelp set to 100%) in assay [1] was less than 10%. Moreover, the Inhibition HIV-1 (%) (viral inhibition, HDV-EGFP single-cycle infectivity in the presence of Vif) was 94% in assay [1], 83% in assay [2], 79% in assay [3] and 68% in assay [4].
